Measurements as given in the DeepSol protein solubility set.

Assay: soluble on expression in E. coli; label from the status in PepcDB or PDB records

In the case of “MGSDKIHHHHHHMETVYFKTLLAVVETGSFSRAAERLCITQSAVSQRIKLLEGRYGYTLIDRAGNFLVPTAAGELVIQKARVIIEHELALLGALKLLPAKTVISFCCSPCFGTVFLPALVRDFVLRNSEQIDFRCVLGSSQGAVRGLRDTDFNIIVIEHCTPLDLSPYDVISLPNDEIIFVSNPATGLDVPEPDLSQLLNLPVIMRKEGCSGTEQLAANLARFGKVLEDFRSVTGLDDPRLIVQTVKTEPYLAFVPKSLVLKELAEGSLRAHTVKGFSHARFRSLVTAPKRYSDPCRSNFIKAVMETVCHISAVSMPGDGPGSRWHKKRPSGRRAPLNSAVTNNAAI”, the “soluble on expression in E. coli” value is reported as “not soluble”.
For “MQLYYLGPKGTFSYLACRQYFSEKETTFQPKSNLFEVIKAVADDDTSIGVVPIENSIEGTINIVADALAQQDVFAHGEIRLDINFALYGNGTDSISDIKKVYSIAPAISQTTNYIHQHQFDYDYVDSTIQSLTKIENGVAAIAPLGSGEAYGFTPIDTHIEDYPHNVTRFLVIKNQQQFDQNATSLMFLITPMHDKPGLLASVLNTFALFNINLSWIESRPLKTQLGMYRFFVQADSAITTDIKKVIAILETLDFKVEMIGAFNLEHHHHHH”, the “soluble on expression in E. coli” value was “not soluble”.
For “MYKINDFEIMAPVGSRESLAAAIQAGADSIYFGIENLNMRARSANTFTIEDLREIARTCDEHGMKSYLTVNTIIYDKDIELMRTIVDAAKEAGISAVIAADVAVMSYANKIGQEVHLSTQLNISNAEALKFYAQFADVVVLARELNLEQVAEIYRQIQEEHICGPSGELIRIEMFCHGALCMAVSGKCYLSLHEMNHSANRGACMQICRRAYTVRDKDTDVELEVDNQYIMSPKDLKTIHFMNKMIDAGVRVFKIEGRARGPEYVRTVVECYKQAIRAYLDDSFTDEKIAAWDERLKTVFNRGFWDGYYLGQRLGEWTKNYGSAATERKIYVGKGIKYFSNIGVAEFLVEAAEVSVGDKLLITGPTTGAVFATLDEARVDLKPVETVKKGEHFSMKLDKIRPSDKLYKLVSTEELKKFKGL”, the “soluble on expression in E. coli” value was “not soluble”.
For “MAHHHHHHMEAKFLKLRQEREEQRRHRSKKTGAITLQRQQYEAEAELLEAEVMQLLQEGNVTESQQRIDALRTLVQDTSNSISLTAHEMAKANVILARLQQRVDEKCSGAAPKKFKFSSRLKAKPTSDAEPATPSFSPTGTSDTNEATATATVPIAGTVSSTNGFGNVYGPSTGTDLFISHSKGVFINGCADCAIYCLPIAGSAFLSNCTNCRVYVACHQLRLKGCTNLDLYVWCASTPIIEECDAMRFGPYRCWVGLLSSCTEDGKTYATHAEWVSRVGEIEDTARTEQNYVKVDDFQWVKKRASPHWCVLAREEERASTTVFGPATLPSSSTAHSTVAADH”, the “soluble on expression in E. coli” value was “not soluble”.
For “SKNPEEAAEGKQRIHLRPGSLRGAAPAKLHLLPCDVLVSRPAPVDRFFTPAVRHDADGLQASFRGRGLRGEEVAVPPGFAGFVMVTEEKGEGLIGKLNFSGDAEDKADEAQEPLERDFDRLIGATGSFSHFTLWGLETVPGPDAKVHRALGWPSLAAAIHAQVPED”, the “soluble on expression in E. coli” value was “soluble”.
For “MKRANAVKLIVGKETHEKLKELAIVAAKCWNEVNWLRMQQFKEGERVDFSKTEKEVYEKYKQILKVNTQQVARKNAESWRSFFSLIEEKKGKLPKWFKPRPPGYWKDKSGKYKMLIIIRNDRYEIDEEKRIIYLKDFKLSLSFNGKLKWRGKQGRLEIIYNEARRSWYAYIPVEVQNDVKAEDKLKASIDLGIINLATVYVEDGSWYIFKGGSVLSQYEYYSKRISVAQKTLARHKQGRSREMKLLHEKRKRFLKHALNSMVRKIMEEFKNKGVGEIAIGYPKEISKDHGNKLTVNFWNYGYIIRRFEGVGEELGVKVVKVDEAWTSKTCSLCGEAHDDGRIKRGLYRCLRIGKVINADLNGAINILHIPESLGAGSRGQLTVRDRGNGLKTQPAVYRWTNGAGWVSSPTSYEVMKMKAVNCKPMNRHKGTFTLLEHHHHHH”, the “soluble on expression in E. coli” value was “not soluble”.
In the case of “MGSDKIHHHHHHMFTMICPVCEKSVNDMQGLALHFRSGSIHGDGKHASWISAEQIEHGISDSDLSDVLIRIFRPEESLIRWARMEFIAKFYAHPHPFMEAMQKPTVPVLLGYVIEHRFFLKNWIRTLSMVIHSTTSDDAFEYEVENVATEYIGLNGKPSHLELLLRMGEALGMSRKRIMEYSPLPETSQAIEVWYGISNRYSWIDTMGAMHVLELVADRTLVDDGSPIHYFNPEILKGSDYPEAVKNFLMEGYEADVGHAGEALKIVQAATMDDLTTRSIMLRSMDAFYVYLNARMRRARMLEASWGE”, the “soluble on expression in E. coli” value is reported as “not soluble”.
For “AVINHDAVPVWPQPEPADATQALAVRFKPQLDVVNGCQPYPAVDPQGNTSGGLKPSGSQAAACRDMSKAQVYSRSGTYNGYYAIMYSWYMPKDSPSTGIGHRHDWENVVVWLDNAASANIVALSASAHSGYKKSFPADKSYLDGITAKISYKSTWPLDHELGFTTSAGKQQPLIQWEQMTQAARDALESTDFGNANVPFKSNFQDKLVKAFFQ”, the “soluble on expression in E. coli” value was “soluble”.
In the case of “MGSDKIHHHHHHMTHQAATVHALNPATPEGLEVRLARTRAEVAAAQRIRYRVFYEEMGAKPTVAMQTLEQDFDDYDKHCDHLVVLADGDVVGTYRLIRRSAAQAVGRFYTAGEFDISPFLAVEGEILELGRSCVDARWRHRGTLQALWQGLAGYMVENDIRLLFGCGSLPGTDPEILAPQLAYLRDNHMAPPALRGRALDSAEKVDFAGIDVAWDARRVLASLPPLLKGYLRLGGVIGDGAVIDRPFNTTDVLVVVNAADIAGRYVKRFSA”, the “soluble on expression in E. coli” value is reported as “not soluble”.
In the case of “MTETRKKPDPIDVYVGTRIRLRRNILGLTQEKLGEKLGITFQQIQKYEKGTNRIGASRLQAIAEIMDVPVSYFFDKGVGTQQVEGFAESDNDFMDFCSSSEGIQLMRAFTNISDSKVRRKIIDLAKALSEEEDLTNKL”, the “soluble on expression in E. coli” value is reported as “not soluble”.
In the case of “MSLNKEQLKSLVIKTIDENREKILKIGQGIYKNPEYGYKEFKTTEAVSNFFEQELNLSVEKNIAVTGCKADANSSKKGPHISILGELDGISCKEHKDANEIGASHTCGHNIQIAGMLGAAVGLVKSGVLEHLDGKVSFMATPAEEFIELEYREQLKKEGKITYFGGKQELIKRGYFDDIDISMMFHASDLGEDKALVGPESNGFVGKKVKFIGKESHAGSAPHDGINALNAAMLAINNVNALRETFKESERVRFHPIITKGGDIVNVVPADVHMESYVRARTINGMIDANERINKALMAGGMAVGADVEITEIPGYLPILRYKSLDNLFKNNLEDLGLKGKVIDGGDFTGSFDFGDVSHIMPTLHPMIGGVKGALHTRDFEIVDEDLAYIIPAKAMALTVVDLLFDNAKDAKDILDTFTPVMTKKEYLTFLEKHDKTEGHHHHHH”, the “soluble on expression in E. coli” value is reported as “soluble”.
With “MNEAEQELYEALVAICQTSGFLLLEELPTDLPDQPFVYLGDSKELPKPTKSAILGEIELIMHVYGALSERQQISTIKGTILRQATSNLKRTAHFNWGIKHQEVKAQMVKDTKQMKKTIWHAVLPLHMQFY” the “soluble on expression in E. coli” value was “not soluble”.
With “AKTTIIAGSAEAPQGSDIQVPVKIENADKVGSINLILSYPNVLEVEDVLQGSLTQNSLFDYQVEGNQIKVGIADSNGISGDGSLFYVKFRVTGNEKAEQAENVKGKLRGLGQQLSEITLRNSHALTLQGIEIYDIDGNSVKVATINGTFRIVSQEEAHHHHHH” the “soluble on expression in E. coli” value was “soluble”.
With “MGSDKIHHHHHHMKVRIRDFIETTEGLYFAVNTYAHPKNKFFAFLRYVPYEFVDFKIEDNNIREINGRKYIKMAESKIAYKFLEEKFSKYLYYDETINVLMHAIPKEDVKRILRPKERLNEIINEENNLNELEEKCRKLALILEDYGVPIKSMGVSGSLLLKLNNKNSDIDFVIYGKDMHKKAREALKQAFEDNKLKPLSDDFWKIAYKKRIKDKTLTYEEFVFYEKRKYNRGIVDNTMFDLLFTREWDEITEKYGDKRYKNLGFAKIEGRVLNDDFAFDNPAVYKIECYNDEDIKEVVSFTHTYAGQCFNGEEIVARGKLEEVIDKSGERYKRIVVGTTREAFNEYIKIKR” the “soluble on expression in E. coli” value was “not soluble”.
With “MNLKPHCLALALACAGLAGPLPALAATPAAAQSAPVTVLASLPVTHALAERLLRDTEVKLQRVAPANLPASRQASFFAGRGAGGLAKAAGQADAVIDLRSIWSDDPLYPLARRSNIRIVEIDAARPVDGALPGIALRPGSDLHAYPWLNPTNLGRMADVLASDLERLAPGAAATIQANLATLKKQLLEATASNETRLAKADNLSVISLSERLGYLLAGLNLDPLDVEIQADDGWTETNIQAFAEELKSEDIALVLHHRQPPKPLADAIAASGARLIVVDTEAADPVAGLESDMKAIVEGLLAGKG” the “soluble on expression in E. coli” value was “not soluble”.
For “MNVAKNRKEKIAGLFLMCPGSGLDMNFVNTIQPGALQYLMKKGSINYPASKNGYPALLTVECLEEFLNTDISKTSPKVIDIQCPVLTVHGIEDNIVPVENSKKLMQRMASTYKDFHRIPGVDHNFDLDEEVLKRLGQLMDVIRENESKKLKAKI”, the “soluble on expression in E. coli” value was “not soluble”.
